Data taken from doi:10.1101/2024.09.25.614892 (bioRxiv, 2024).
Read-outs that look alike come from different tables or passages of the source.

B1: FliD (flagellar filament cap protein) of Campylobacter jejuni (natural protein, UniProt Q9PHW6 1-642, looked up)
chain: MAFGSLSSLGFGSGVLTQDTIDKLKEAEQKARIDPYTKKIEENTTKQKDLTEIKTKLLSFQTAVSSLADATVFAKRKVVGSISDNPPASLTVNSGVALQSMNINVTQLAQKDVYQSKGLANDGGFVNAQLNGTADLTFFSNGKEYTVTVDKNTTYRDLADKINEASGGEIVAKIVNTGEKGTPYRLTLTSKETGEDSAISFYAGKKDSNGKYQKDINAEKIFDDLGWGLDVSASIDPDKDKKGYGIKDASLHIQTAQNAEFTLDGIKMFRSSNTVTDLGVGMTLTLNKTGEINFDVQQDFEGVTKAMQDLVDAYNDLVTNLNAATDYNSETGTKGTLQGISEVNSIRSSILADLFDSQVVDGTTEDANGNKVNTKVMLSMQDFGLSLNDAGTLSFDSSKFEQKVKEDPDSTESFFSNITKYEDINHTGEVIKTGSLSKYLNSNGGNTNGLEFKPGDFTIVFNNQTYDLSKNSDGTNFKLTGKTEEELLQNLANHINSKGIEGLKVKVESYNQNNVTGFRLNFSGDGSSDFSIKGDANILKELGLSDVNITSKPIEGKGIFSKLKATLQEMTGKDGSITKYDESLTNDIKSLNTSKDSTQAMIDTRYDTMANQWLQYESILNKLNQQLNTVTNMINAANNSNN
B2: FlgK (hook-filament junction protein) of Campylobacter jejuni (natural protein, UniProt Q0P8E9 1-608, looked up)
chain: MGIFGTLYTGVTGLKASEVQIATTGNNISNANATFYTRQRVVQTTNGYITTGGVQVGTGTAVESIVRLHDEYSYYKLKGASTQLEYTKYMASTLQEIAQRFPDLQNTGILQDLENYNKAWNDFASNPNENATKIALVKASQTLTESVNNTFATLDKIQKKVNDDIKNTVDEINRIGEEIATINKQIYGQEALPTEHANELRDRRDELELTLSKLVSAVASKNEINQDNRLDTTITDPGHQYNLSIEGFSIVDGINFHPLKLDYDDKNKSYSIYYETPDEKVRDLTAKISGGQLGAQLDLRGRNYSKSEGKYEDGIIQGYMDSLDTFAKTMINETNNLYASSAKSSVTSDYLSGLKGDIPLVNYDRTIQPGSFDIVIYDDKGDKKLTKTITIDVNTTMNDIMRQINANTDDNDNKNSNDDVDDHINASFSYDAKTGDGLFQINAKSGFKVAIEDKGTNFAGAFSIGGFFSGTDASDMKVKDSILNDPSTVRASSNGVDSGNDMANKIIQLQYKKVNFYNEDGTIDNLTMEEYYRKLTGKIASDGENNNVVNSSNETLYNSVYSEYQSKSGVNTNEELAALIQYQSSYGAAAKIVSTVDQMLDTLLGLKS
B3: FlgK (hook-filament junction protein) of Salmonella enterica (natural protein, UniProt P0A1J5 1-553, looked up)
chain: MSSLINHAMSGLNAAQAALNTVSNNINNYNVAGYTRQTTILAQANSTLGAGGWIGNGVYVSGVQREYDAFITNQLRGAQNQSSGLTTRYEQMSKIDNLLADKSSSLSGSLQSFFTSLQTLVSNAEDPAARQALIGKAEGLVNQFKTTDQYLRDQDKQVNIAIGSSVAQINNYAKQIANLNDQISRMTGVGAGASPNDLLDQRDQLVSELNKIVGVEVSVQDGGTYNLTMANGYTLVQGSTARQLAAVPSSADPTRTTVAYVDEAAGNIEIPEKLLNTGSLGGLLTFRSQDLDQTRNTLGQLALAFADAFNAQHTKGYDADGNKGKDFFSIGSPVVYSNSNNADKTVSLTAKVVDSTKVQATDYKIVFDGTDWQVTRTADNTTFTATKDADGKLEIDGLKVTVGTGAQKNDSFLLKPVSNAIVDMNVKVTNEAEIAMASESKLDPDVDTGDSDNRNGQALLDLQNSNVVGGNKTFNDAYATLVSDVGNKTSTLKTSSTTQANVVKQLYKQQQSVSGVNLDEEYGNLQRYQQYYLANAQVLQTANALFDALLNIR
B4: FlgL (hook-filament junction protein) of Salmonella enterica (natural protein, UniProt P16326 1-317, looked up)
chain: MRISTQMMYEQNMSGITNSQAEWMKLGEQMSTGKRVTNPSDDPIAASQAVVLSQAQAQNSQYALARTFATQKVSLEESVLSQVTTAIQTAQEKIVYAGNGTLSDDDRASLATDLQGIRDQLMNLANSTDGNGRYIFAGYKTEAAPFDQATGGYHGGEKSVTQQVDSARTMVIGHTGAQIFNSITSNAVPEPDGSDSEKNLFVMLDTAIAALKTPVEGNNVEKEKAAAAIDKTNRGLKNSLNNVLTVRAELGTQLSELSTLDSLGSDRALGQKLQMSNLVDVDWNSVISSYVMQQAALQASYKTFTDMQGMSLFQLNR
B5: FliD (flagellar filament cap protein) of Salmonella enterica (natural protein, UniProt P16328 1-467, looked up)
chain: MASISSLGVGSNLPLDQLLTDLTKNEKGRLTPITKQQSANSAKLTAYGTLKSALEKFQTANTALNKADLFKSTVASSTTEDLKVSTTAGAAAGTYKINVTQLAAAQSLATKTTFATTKEQLGDTSVTSRTIKIEQPGRKEPLEIKLDKGDTSMEAIRDAINDADSGIAASIVKVKENEFQLVLTANSGTDNTMKITVEGDTKLNDLLAYDSTTNTGNMQELVKAENAKLNVNGIDIERQSNTVTDAPQGITLTLTKKVTDATVTVTKDDTKAKEAIKSWVDAYNSLVDTFSSLTKYTAVEPGEEASDKNGALLGDSVVRTIQTGIRAQFANSGSNSAFKTMAEIGITQDGTSGKLKIDDDKLTKVLKDNTAAARELLVGDGKETGITTKIATEVKSYLADDGIIDNAQDNVNATLKSLTKQYLSVSNSIDETVARYKAQFTQLDTMMSKLNNTSSYLTQQFTAMNKS
B6: FlgE (flagellar hook protein) of Salmonella enterica (natural protein, UniProt P0A1J1 1-403, looked up)
chain: MSFSQAVSGLNAAATNLDVIGNNIANSATYGFKSGTASFADMFAGSKVGLGVKVAGITQDFTDGTTTNTGRGLDVAISQNGFFRLVDSNGSVFYSRNGQFKLDENRNLVNMQGMQLTGYPATGTPPTIQQGANPAPITIPNTLMAAKSTTTASMQINLNSTDPVPSKTPFSVSDADSYNKKGTVTVYDSQGNAHDMNVYFVKTKDNEWAVYTHDSSDPAATAPTTASTTLKFNENGILESGGTVNITTGTINGATAATFSLSFLNSMQQNTGANNIVATNQNGYKPGDLVSYQINNDGTVVGNYSNEQEQVLGQIVLANFANNEGLASQGDNVWAATQASGVALLGTAGSGNFGKLTNGALEASNVDLSKELVNMIVAQRNYQSNAQTIKTQDQILNTLVNLR
B7: FlgL (hook-filament junction protein) of Campylobacter jejuni (natural protein, UniProt A0A5T0WDM5 1-750, looked up)
chain: MRITNKLNFTNSVNNSMGGQSALYQISQQLASGLKIQNSYEDASTYIDNTRLEYEIKTLEQVKESTSRAQEMTQNSMKALQDMVKLLEDFKVKVTQAASDSNSQTSREAIAKELERIKESIVQLANTSVNGQYLFAGSQVANKPFDSNGNYYGDKNNINVVTGAGTESPYNIPGWDLFFKADGDYKKQISTNVSFTDNRWDLNKDPDKTKYLTGDSKWQQLIGQGYVKDNSLDADKDFEYDDSKLDFPPTTLYVQGTKPDGTSFKSAVLVKPEDTLEDVMENIGALYGNTPNNKVVEVSMNDSGQIQITDLKQGNNKLDFHAVAFTPQADTKDELKNIIEAANQEGISMNEVTNRVMQAATAAPSNGDITKLNNPVTVTINNQQFTIDLKQTDFIKSKMTDTDGNAANGADYDNVYFEKNGNTVYGNVSQVIKGSNAYATDSTKLSEVMAGDSLNGTTLNLKVNSKGGNSYDVTINLQTSTVSYPDPNNPGQTISFPIMHTNPATGNSGVVTGSNDITYGQINDIIGMFAADKIPTTTIQANNGQINNADYTQIQQLMKDSQATVDVSMDYKGRISVTDKLSSGTNIEISLSDSQSGQFPAPPFTTTSTVQNGPNFSFSANNSLTIDEPNVDIIKDLDSMIDAVLKGNMRADSESENPRNTGMQGALERLDHLADHVSKLNTTMGAYHNTIEGVNTRTSFLSVNVQSIKSNVIDVDYGEAMMNLMQVQLAYQASLKASTTISQLSLLNYM
B8: FliC (flagellin) of Salmonella enterica (natural protein, UniProt P06179 1-495, looked up)
chain: MAQVINTNSLSLLTQNNLNKSQSALGTAIERLSSGLRINSAKDDAAGQAIANRFTANIKGLTQASRNANDGISIAQTTEGALNEINNNLQRVRELAVQSANSTNSQSDLDSIQAEITQRLNEIDRVSGQTQFNGVKVLAQDNTLTIQVGANDGETIDIDLKQINSQTLGLDTLNVQQKYKVSDTAATVTGYADTTIALDNSTFKASATGLGGTDQKIDGDLKFDDTTGKYYAKVTVTGGTGKDGYYEVSVDKTNGEVTLAGGATSPLTGGLPATATEDVKNVQVANADLTEAKAALTAAGVTGTASVVKMSYTDNNGKTIDGGLAVKVGDDYYSATQNKDGSISINTTKYTADDGTSKTALNKLGGADGKTEVVSIGGKTYAASKAEGHNFKAQPDLAEAAATTTENPLQKIDAALAQVDTLRSDLGAVQNRFNSAITNLGNTVNNLTSARSRIEDSDYATEVSNMSRAQILQQAGTSVLAQANQVPQNVLSLLR

What was measured:
Assay in all cases: cryo-EM structure
cryo-EM structure [1] = molecular target: the molecule itself
cryo-EM structure [2] = molecular target: the molecule itself; remark: listed apart in the source
[3] = molecular target: B8
cryo-EM structure [4] = molecular target: the molecule itself; remark: listed apart in the source
[5] = molecular target: B8; remark: listed apart in the source

Question: Which “stoichiometry N” value (cryo-EM structure [1]) does the source give for B1 here?
Answer: The value was 5 subunits.

Question: For B2, which “stoichiometry N” value (cryo-EM structure [1]) is on record?
Answer: The value was 11 subunits.

Question: With B3 as the binder, how does the “stoichiometry N” value (cryo-EM structure [2]) read?
Answer: The value was 11 subunits.

Question: Which “stoichiometry N” value (cryo-EM structure [2]) does the source give for B4 here?
Answer: The value was 11 subunits.

Question: Does B4 bind [3]?
Answer: Result: binds

Question: What does the source list for B5?
Answer: stoichiometry N (cryo-EM structure [4]): 5 subunits; binding result [5]: binds

Question: Does B6 bind (cryo-EM structure [2])?
Answer: Result: binds

Question: For B7, which “stoichiometry N” value (cryo-EM structure [1]) is on record?
Answer: Its value is 11 subunits.

Question: Does B8 bind (cryo-EM structure [2])?
Answer: Result: binds
